Results: patent US20240261333A1, “NOVEL TARGETS FOR ENHANCING ANTI-TUMOR IMMUNITY” (THE BROAD INSTITUTE, INC., priority 2021, published 2024)

Legend:
[1] = molecular target: SPTAN1 (human) (UniProt Q13813); assay: co-IP, IgG control, lysate of cells with C-FLAG B3GNT2; mass spectrometry
[2] = molecular target: HUWE1 (human) (UniProt Q7Z6Z7); assay: as above
[3] = molecular target: RPS3 (human) (UniProt P23396); assay: as above
[4] = molecular target: RPL4 (human) (UniProt P36578); assay: as above
[5] = molecular target: G3BP1 (human) (UniProt Q13283); assay: as above
Chain of G3BP1 (human) (Q13283 2-466 limits assumed): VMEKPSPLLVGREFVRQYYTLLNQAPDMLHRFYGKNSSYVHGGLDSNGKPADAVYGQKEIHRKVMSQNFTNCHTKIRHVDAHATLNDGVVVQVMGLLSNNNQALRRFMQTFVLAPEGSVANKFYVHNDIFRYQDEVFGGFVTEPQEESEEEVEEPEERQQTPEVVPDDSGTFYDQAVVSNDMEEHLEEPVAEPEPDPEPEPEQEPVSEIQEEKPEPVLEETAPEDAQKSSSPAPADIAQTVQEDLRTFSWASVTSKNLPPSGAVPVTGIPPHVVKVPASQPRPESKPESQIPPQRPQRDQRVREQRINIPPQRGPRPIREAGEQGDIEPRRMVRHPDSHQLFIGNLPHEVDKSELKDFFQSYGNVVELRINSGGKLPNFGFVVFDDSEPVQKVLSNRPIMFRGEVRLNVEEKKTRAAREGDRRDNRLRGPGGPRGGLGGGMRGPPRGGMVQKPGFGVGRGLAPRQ

[6] = molecular target: HSPA8 (human) (UniProt P11142); assay: as above
[7] = molecular target: GGCT (human) (UniProt O75223); assay: as above
[8] = molecular target: NUFIP2 (human) (UniProt Q7Z417); assay: as above
Chain of NUFIP2 (human) (Q7Z417 whole entry): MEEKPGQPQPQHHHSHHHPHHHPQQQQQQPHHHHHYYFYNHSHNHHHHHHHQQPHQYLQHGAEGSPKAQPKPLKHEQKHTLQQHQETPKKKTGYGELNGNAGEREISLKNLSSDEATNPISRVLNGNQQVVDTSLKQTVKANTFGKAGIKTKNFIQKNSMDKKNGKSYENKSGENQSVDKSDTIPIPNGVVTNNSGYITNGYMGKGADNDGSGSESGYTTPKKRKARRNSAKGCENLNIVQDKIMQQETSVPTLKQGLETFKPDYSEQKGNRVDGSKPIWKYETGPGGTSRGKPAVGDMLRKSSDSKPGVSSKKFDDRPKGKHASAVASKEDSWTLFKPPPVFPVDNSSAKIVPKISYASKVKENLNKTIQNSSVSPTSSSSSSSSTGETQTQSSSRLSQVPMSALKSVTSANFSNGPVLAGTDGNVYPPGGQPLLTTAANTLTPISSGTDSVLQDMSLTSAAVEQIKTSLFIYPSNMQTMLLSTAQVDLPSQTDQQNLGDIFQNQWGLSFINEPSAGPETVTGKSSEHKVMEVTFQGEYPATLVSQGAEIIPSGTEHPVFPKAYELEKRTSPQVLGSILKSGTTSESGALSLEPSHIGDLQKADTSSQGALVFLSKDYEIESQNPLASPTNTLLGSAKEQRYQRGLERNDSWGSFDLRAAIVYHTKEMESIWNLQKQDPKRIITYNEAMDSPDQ

[9] = molecular target: DNAJC3 (human) (UniProt Q13217); assay: as above
[10] = molecular target: KTN1 (human) (UniProt Q86UP2); assay: IgG control IP from lysate of N-FLAG B3GNT2 cells, mass spectrometry
Chain of KTN1 (human) (Q86UP2 whole entry): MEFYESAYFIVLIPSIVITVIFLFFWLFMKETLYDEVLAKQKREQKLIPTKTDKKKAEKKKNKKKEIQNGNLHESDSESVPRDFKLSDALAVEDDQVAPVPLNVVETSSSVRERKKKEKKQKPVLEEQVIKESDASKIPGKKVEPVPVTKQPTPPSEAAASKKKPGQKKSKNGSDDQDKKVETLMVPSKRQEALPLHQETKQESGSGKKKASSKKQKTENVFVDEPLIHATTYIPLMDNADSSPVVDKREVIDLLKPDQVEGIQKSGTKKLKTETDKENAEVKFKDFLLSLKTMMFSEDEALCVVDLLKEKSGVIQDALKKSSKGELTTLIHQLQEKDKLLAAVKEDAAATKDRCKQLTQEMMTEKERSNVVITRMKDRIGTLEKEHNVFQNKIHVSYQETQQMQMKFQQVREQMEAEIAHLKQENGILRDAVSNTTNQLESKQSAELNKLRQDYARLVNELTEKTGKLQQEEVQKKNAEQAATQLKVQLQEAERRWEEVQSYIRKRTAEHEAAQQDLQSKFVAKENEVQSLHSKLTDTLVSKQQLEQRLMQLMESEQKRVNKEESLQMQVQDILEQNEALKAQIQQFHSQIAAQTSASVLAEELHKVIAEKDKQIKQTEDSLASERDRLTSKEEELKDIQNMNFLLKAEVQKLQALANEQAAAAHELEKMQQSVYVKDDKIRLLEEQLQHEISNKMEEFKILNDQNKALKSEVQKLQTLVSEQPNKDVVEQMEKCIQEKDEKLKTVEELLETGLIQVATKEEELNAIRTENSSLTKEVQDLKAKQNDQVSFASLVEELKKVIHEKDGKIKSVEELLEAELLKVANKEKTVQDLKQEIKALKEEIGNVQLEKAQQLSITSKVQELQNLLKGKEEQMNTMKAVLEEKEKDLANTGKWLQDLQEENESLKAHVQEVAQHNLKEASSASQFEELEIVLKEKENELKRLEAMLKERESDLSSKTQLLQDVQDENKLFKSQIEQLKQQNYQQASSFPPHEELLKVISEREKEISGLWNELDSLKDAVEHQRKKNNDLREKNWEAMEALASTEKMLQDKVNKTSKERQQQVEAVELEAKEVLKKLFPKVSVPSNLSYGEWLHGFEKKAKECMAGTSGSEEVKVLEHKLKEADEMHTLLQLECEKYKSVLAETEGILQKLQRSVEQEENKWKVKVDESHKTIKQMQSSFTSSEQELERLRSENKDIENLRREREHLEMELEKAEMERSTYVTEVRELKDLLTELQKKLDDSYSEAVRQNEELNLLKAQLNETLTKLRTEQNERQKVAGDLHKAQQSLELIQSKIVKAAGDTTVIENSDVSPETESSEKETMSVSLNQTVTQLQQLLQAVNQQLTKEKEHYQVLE

[11] = molecular target: TECR (human) (UniProt Q9NZ01); assay: as above
Chain of TECR (human) (Q9NZ01 whole entry): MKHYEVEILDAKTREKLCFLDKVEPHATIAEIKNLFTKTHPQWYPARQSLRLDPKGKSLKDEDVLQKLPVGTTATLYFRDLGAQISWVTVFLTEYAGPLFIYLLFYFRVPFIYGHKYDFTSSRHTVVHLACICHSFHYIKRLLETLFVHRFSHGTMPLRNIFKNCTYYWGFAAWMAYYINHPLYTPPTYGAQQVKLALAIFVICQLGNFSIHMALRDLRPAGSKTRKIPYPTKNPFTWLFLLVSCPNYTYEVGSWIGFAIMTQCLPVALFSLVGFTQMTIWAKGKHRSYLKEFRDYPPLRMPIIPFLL

[12] = molecular target: H1FX (human) (UniProt Q92522); assay: as above
[13] = molecular target: FBXO6 (human) (UniProt Q9NRD1); assay: as above
[14] = molecular target: NTPCR (human) (UniProt Q9BSD7); assay: as above
[15] = molecular target: PDIA4 (human) (UniProt P13667); assay: as above
Chain of PDIA4 (human) (P13667 21-645 limits assumed): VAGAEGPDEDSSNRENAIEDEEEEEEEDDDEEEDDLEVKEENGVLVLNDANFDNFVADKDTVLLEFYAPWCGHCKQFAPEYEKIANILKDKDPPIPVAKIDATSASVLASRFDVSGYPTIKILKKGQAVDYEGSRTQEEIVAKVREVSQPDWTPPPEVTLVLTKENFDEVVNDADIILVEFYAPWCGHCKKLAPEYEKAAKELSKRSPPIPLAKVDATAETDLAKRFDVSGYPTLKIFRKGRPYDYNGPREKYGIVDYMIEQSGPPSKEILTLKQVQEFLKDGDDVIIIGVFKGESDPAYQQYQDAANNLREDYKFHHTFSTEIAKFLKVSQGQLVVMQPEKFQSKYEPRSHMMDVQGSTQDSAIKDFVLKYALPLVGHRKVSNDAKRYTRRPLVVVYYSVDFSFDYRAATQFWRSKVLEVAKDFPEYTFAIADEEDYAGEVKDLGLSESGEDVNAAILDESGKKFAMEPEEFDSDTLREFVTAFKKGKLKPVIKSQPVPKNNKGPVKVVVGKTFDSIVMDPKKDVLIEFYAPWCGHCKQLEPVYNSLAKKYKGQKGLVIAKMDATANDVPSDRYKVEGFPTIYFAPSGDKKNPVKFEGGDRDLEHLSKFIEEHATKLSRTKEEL

[16] = molecular target: PSMB4 (human) (UniProt P28070); assay: as above
[17] = molecular target: HDGFL2 (human) (UniProt Q7Z4V5); assay: as above
[18] = molecular target: ERP44 (human) (UniProt Q9BS26); assay: as above
[19] = molecular target: RRBP1 (human) (UniProt Q9P2E9); assay: as above
[20] = molecular target: KPNB1 (human) (UniProt Q14974); assay: as above
Chain of KPNB1 (human) (Q14974 whole entry): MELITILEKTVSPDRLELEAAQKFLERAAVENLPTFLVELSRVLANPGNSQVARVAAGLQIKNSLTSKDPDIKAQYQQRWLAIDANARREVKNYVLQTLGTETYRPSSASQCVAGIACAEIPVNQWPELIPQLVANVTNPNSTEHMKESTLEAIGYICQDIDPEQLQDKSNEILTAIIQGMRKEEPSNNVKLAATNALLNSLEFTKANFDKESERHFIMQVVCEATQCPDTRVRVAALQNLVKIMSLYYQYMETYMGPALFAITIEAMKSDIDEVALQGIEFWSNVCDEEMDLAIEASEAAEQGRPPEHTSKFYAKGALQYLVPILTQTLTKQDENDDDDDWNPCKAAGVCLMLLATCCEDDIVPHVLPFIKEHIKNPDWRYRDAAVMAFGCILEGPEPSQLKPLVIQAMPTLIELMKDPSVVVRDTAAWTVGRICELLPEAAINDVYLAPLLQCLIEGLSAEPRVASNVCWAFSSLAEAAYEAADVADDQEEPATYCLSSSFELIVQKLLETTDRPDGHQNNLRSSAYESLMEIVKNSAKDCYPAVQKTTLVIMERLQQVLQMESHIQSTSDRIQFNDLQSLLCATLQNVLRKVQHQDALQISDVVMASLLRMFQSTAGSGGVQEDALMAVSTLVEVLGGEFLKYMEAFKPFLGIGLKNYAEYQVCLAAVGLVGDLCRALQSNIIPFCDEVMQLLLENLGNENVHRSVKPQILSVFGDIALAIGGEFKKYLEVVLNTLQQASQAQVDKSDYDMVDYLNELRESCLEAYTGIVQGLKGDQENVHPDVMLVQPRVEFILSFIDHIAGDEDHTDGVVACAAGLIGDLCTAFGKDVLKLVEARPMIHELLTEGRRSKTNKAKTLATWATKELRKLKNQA

[21] = molecular target: ERP29 (human) (UniProt P30040); assay: as above
[22] = molecular target: AIFM1 (human) (UniProt O95831); assay: as above
[23] = molecular target: PSMA5 (human) (UniProt P28066); assay: as above
Chain of PSMA5 (human) (P28066 whole entry): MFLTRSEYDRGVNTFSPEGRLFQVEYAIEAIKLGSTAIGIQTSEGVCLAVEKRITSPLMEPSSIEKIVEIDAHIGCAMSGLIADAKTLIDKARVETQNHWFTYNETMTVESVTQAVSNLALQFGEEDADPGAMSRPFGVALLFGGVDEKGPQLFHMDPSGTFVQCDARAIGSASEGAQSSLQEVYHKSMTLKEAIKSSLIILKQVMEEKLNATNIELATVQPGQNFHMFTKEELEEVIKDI

[24] = molecular target: RPS6 (human) (UniProt P62753); assay: as above
[25] = molecular target: STAU1 (human) (UniProt O95793); assay: as above
[26] = molecular target: HSP90AB1 (human) (UniProt P08238); assay: as above
[27] = molecular target: PXN (human) (UniProt P49023); assay: as above
[28] = molecular target: TRAFD1 (human) (UniProt O14545); assay: as above
[29] = molecular target: PGAM5 (human) (UniProt Q96HS1); assay: as above
[30] = molecular target: PSMB6 (human) (UniProt P28072); assay: as above
[31] = molecular target: RPL34 (human) (UniProt P49207); assay: as above
[32] = molecular target: EEF2 (human) (UniProt P13639); assay: as above
[33] = molecular target: UBTF (human) (UniProt P17480); assay: as above
[34] = molecular target: LDHA (human) (UniProt P00338); assay: as above
[35] = molecular target: DNAJA3 (human) (UniProt Q96EY1); assay: as above
[36] = molecular target: SFXN3 (human) (UniProt Q9BWM7); assay: as above
[37] = molecular target: RCN1 (human) (UniProt Q15293); assay: as above
Chain of RCN1 (human) (Q15293 30-331 limits assumed): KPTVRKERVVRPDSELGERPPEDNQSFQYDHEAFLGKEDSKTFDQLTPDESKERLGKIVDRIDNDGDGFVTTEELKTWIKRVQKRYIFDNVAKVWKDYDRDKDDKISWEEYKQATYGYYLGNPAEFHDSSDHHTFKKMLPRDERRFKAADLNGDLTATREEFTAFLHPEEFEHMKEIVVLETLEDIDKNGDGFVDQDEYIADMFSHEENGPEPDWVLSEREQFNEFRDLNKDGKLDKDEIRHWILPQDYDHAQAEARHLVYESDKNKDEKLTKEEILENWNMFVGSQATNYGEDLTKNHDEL

[38] = molecular target: ATAD3A (human) (UniProt Q9NVI7); assay: as above
[39] = molecular target: LARP4 (human) (UniProt Q71RC2); assay: as above

IgG control (Millipore Sigma 12-371) (antibody)
co-IP mass spectrometry count [1]: 0
co-IP mass spectrometry count [2]: 0
co-IP mass spectrometry count [3]: 17
co-IP mass spectrometry count [4]: 6
co-IP mass spectrometry count [5]: 25
co-IP mass spectrometry count [6]: 15
co-IP mass spectrometry count [7]: 0
co-IP mass spectrometry count [8]: 4
co-IP mass spectrometry count [9]: 0
co-IP mass spectrometry count [10]: 0
co-IP mass spectrometry count [11]: 0
co-IP mass spectrometry count [12]: 0
co-IP mass spectrometry count [13]: 0
co-IP mass spectrometry count [14]: 0
co-IP mass spectrometry count [15]: 0
co-IP mass spectrometry count [16]: 0
co-IP mass spectrometry count [17]: 0
co-IP mass spectrometry count [18]: 0
co-IP mass spectrometry count [19]: 0
co-IP mass spectrometry count [20]: 0
co-IP mass spectrometry count [21]: 0
co-IP mass spectrometry count [22]: 0
co-IP mass spectrometry count [23]: 0
co-IP mass spectrometry count [24]: 2
co-IP mass spectrometry count [25]: 0
co-IP mass spectrometry count [26]: 0
co-IP mass spectrometry count [27]: 0
co-IP mass spectrometry count [28]: 0
co-IP mass spectrometry count [29]: 0
co-IP mass spectrometry count [30]: 0
co-IP mass spectrometry count [31]: 0
co-IP mass spectrometry count [32]: 0
co-IP mass spectrometry count [33]: 0
co-IP mass spectrometry count [34]: 0
co-IP mass spectrometry count [35]: 0
co-IP mass spectrometry count [36]: 0
co-IP mass spectrometry count [37]: 0
co-IP mass spectrometry count [38]: 0
co-IP mass spectrometry count [39]: 0
